Results from publication PMC4671291 (The Biochemical journal, 2011).

Target: the molecule itself
Experiment: SEC

B1: Saccharomyces cerevisiae dUTP pyrophosphatase DUT1 (enzyme, S. cerevisiae)
chain: MTATSDKVLKIQLRSASATVPTKGSATAAGYDIYASQDITIPAMGQGMVSTDISFTVPVGTYGRIAPRSGLAVKNGIQTGAGVVDRDYTGEVKVVLFNHSQRDFAIKKGDRVAQLILEKIVDDAQIVVVDSLEESARGAGGFGSTGN
stoichiometry N: 3
